Results published in PMC1570500.

Target: syntaxin 1 (rat (endogenous in PC12)) (UniProt P32851)
Test: immunostaining of cells or tissue; PC12 membrane sheets incubated in buffer at 37 °C for increasing periods before fixation, immunostained for Munc18–1; no re-binding (large volume of buffer); trace fitted to a double-exponential decay

Sequence of UniProt P32851 (P32851 whole entry): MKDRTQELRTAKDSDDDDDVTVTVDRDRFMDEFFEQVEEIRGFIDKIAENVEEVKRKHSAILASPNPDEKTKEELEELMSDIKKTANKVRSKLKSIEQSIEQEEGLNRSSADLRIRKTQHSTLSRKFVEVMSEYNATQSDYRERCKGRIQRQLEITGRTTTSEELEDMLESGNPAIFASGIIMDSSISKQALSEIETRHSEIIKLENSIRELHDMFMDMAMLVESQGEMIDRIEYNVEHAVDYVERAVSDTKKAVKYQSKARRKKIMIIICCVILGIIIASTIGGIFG

half-time of dissociation from the membrane, fast component of a double-exponential decay: 5 s
half-time of dissociation from the membrane, slow component of a double-exponential decay: 1000 s
Substance: Munc18–1 (from UniProt P61765 1-594) (natural protein)
